The results in this text go back to patent US20240181058A1, “[…] ANTIGEN RECEPTOR TARGETING ONCOLYTIC VIRUS-DERIVED PROTEIN, […], AND USES OF BOTH” (priority 2021, published 2024).

First the molecules themselves.
B1: Ab18 (protein)
scFv: QVQLVESGGGLVQPGKSLRLSCAASGFTFSTYGMTWVRQAPGKGLEWVSGISGGGSSTNYADSVKGRFIISRDNSNNTLYLQMNSLRAEDTAVYYCARWGVMLSFDYWGQGTPVTVSSGLGGLGGGGSGGGGSGGSSGVGSDIQMTQSPSTLPASVGDRVTITCRASYSVSPWLAWYQQKPGKAPKLLIYKASTLESGVPSRFSGSGSGTEFTLTISSLQPDDFATYYCQQFNSYMMYTFGQGTKLEIK
modifications: amino acid sequence for anti-UTTA scFv (Ab18)
B2: Ab13 (protein)
scFv: QMQLVESGAEVKKTGSSVKVSCKASGDTLTYRFLHWVRQAPGQAPEWMGWITPFNDNTNYAQKFQDRVTITRDRSMSTAYMELSSLRSEDTAVYYCATGGGNNYYGMEVWGQGTPITVSSGLGGLGGGGSGGGGSGGSSGVGSSYELTQPLSLSVSPGQTASITCSGDKLGDKFTSWYQQQPGQSPVLVIYQDAKRPSGIPERFSGSNSGSTATLTISGTQSMDEADYYCQAWDSSSVVFGGGTKLTVL
modifications: amino acid sequence for anti-UTTA scFv (Ab13)
B3: Ab19 (protein)
scFv: QVQLVESGAEVRRPGSSVKVSCKTSGVTFSGYVLSWVRQAPGHGLEWMGRIIPLIDVENYAREFQGRMKITADKSTNTVYMELNNLRSEDTAVYYCAKSVVRGLDYYYYGFDVWGQGTTVTVSSGLGGLGGGGSGGGGSGGSSGVGSSYELTQPPSLSVAPGKTARITCGGNNIGSKSVHWYQQKPGQAPRLVTYYDGNRPSGIPERFSGSNSGNTATLIISRVEAGDEADYYCQVWDSSSDQGVFGTGTKVTVL
modifications: amino acid sequence for anti-UTTA scFv (Ab19)
B4: Ab16 (protein)
scFv: QVQLQQSGPGLVKPSQTLSLTCAISGDSVSSNSAAWNWIRQSPSRGLEWLGRTYYRSKWYNDYAVSVKSRITINPDTSKNQFSLQLNSVTAVDTAVYYCAKSYAGPISYYYYGLDVWGQGTTVTVSSGLGGLGGGGSGGGGSGGSSGVGSQSALTQPASVSGSPGQSVTISCTGTSSDIGRYNLVSWYQQHPGKAPKLMIYGGSKRPSGVSNRFSGSNSDNTASLTISGLRAEDEADYYCSSYASSSTPYVFGTGTKVTVL
modifications: amino acid sequence for anti-UTTA scFv (Ab16)

The assay addresses protein A56 (Vaccinia virus, UniProt Q01218).
Consider B1, for which the “Western blotting, binding affinity in a two-dimensional structure using PAGE” value (from here on “Western blotting, binding affinity”) is given as “linear multiple bands were identified”.
For B2, the “Western blot band on denatured protein” value was “many weak bands with small sizes were observed or no band was observed” and the “Western blotting, binding affinity” value is recorded as “binding did not occur”.
B3: the “Western blot band on denatured protein” value is listed as “many weak bands with small sizes were observed or no band was observed” and the “Western blotting, binding affinity” value is recorded as “a linear single band was identified”.
For B4 the same measures were “many weak bands with small sizes were observed or no band was observed” and “linear multiple bands were identified”.
